In patent US20220186239A1 (NINGBO UNIVERSITY, published 2022):

Target: T1, AD-T (UniProt P03070 87-708)
T1 construct: Commercial Y2H control prey; also called control prey
Experiment: yeast two-hybrid in Y2H Gold; growth on QDO and colour on QDO/X/A

B1: BD-Lam (other)
chain: MKLLSSIEQACDICRLKKLKCSKEKPKCAKCLKNNWECRYSPKTKRSPLTRAHLTEVESRLERLEQLFLLIFPREDLDMILKMDSLQDIKALLTGLFVQDNVNKDAVTDRLASVETDMPLTLRQHRISATSSSEESSNKGQRQLTVSSEEVVSREVSGIKAAYEAELGDARKTLDSVAKERARLQLELSKVREEFKELKARNTKKEGDLIAAQARLKDLEALLNSKEAALSTALSEKRTLEGELHDLRGQVAKLEAALGEAKKQLQDEMLRRVDAENRLQTMKEELDFQKNIYSEELRETKRRHETRLVEID
notes: Commercial Y2H negative control bait; also called negative control bait
binding result: no binding
